Measured values from publication PMC2836179 (Biochemistry, 2010).

B1: His6-N-WASp (natural protein, human, UniProt O00401 1-505, looked up)
chain: MSSVQQQPPPPRRVTNVGSLLLTPQENESLFTFLGKKCVTMSSAVVQLYAADRNCMWSKKCSGVACLVKDNPQRSYFLRIFDIKDGKLLWEQELYNNFVYNSPRGYFHTFAGDTCQVALNFANEEEAKKFRKAVTDLLGRRQRKSEKRRDPPNGPNLPMATVDIKNPEITTNRFYGPQVNNISHTKEKKKGKAKKKRLTKADIGTPSNFQHIGHVGWDPNTGFDLNNLDPELKNLFDMCGISEAQLKDRETSKVIYDFIEKTGGVEAVKNELRRQAPPPPPPSRGGPPPPPPPPHNSGPPPPPARGRGAPPPPPSRAPTAAPPPPPPSRPSVAVPPPPPNRMYPPPPPALPSSAPSGPPPPPPSVLGVGPVAPPPPPPPPPPPGPPPPPGLPSDGDHQVPTTAGNKAALLDQIREGAQLKKVEQNSRPVSCSGRDALLDQIRQGIQLKSVADGQESTPPTPAPTSGIVGALMEVMQKRSKAIHSSDEDEDEDDEEDFEDDDEWED

Key:
Experiment in all cases: pull-down
His6-N-WASp = target: B1
[1] = target: full-length Arg (His6-Arg) (mouse, UniProt Q4JIM5 1-1182)
[2] = target: Phosphorylated N-WASp (pN-WASp) (human, UniProt O00401 1-505, tyrosine phosphorylated by co-expressed Arg; Y256 is the primary site)

full-length Arg (His6-Arg), sequence (Q4JIM5 whole entry): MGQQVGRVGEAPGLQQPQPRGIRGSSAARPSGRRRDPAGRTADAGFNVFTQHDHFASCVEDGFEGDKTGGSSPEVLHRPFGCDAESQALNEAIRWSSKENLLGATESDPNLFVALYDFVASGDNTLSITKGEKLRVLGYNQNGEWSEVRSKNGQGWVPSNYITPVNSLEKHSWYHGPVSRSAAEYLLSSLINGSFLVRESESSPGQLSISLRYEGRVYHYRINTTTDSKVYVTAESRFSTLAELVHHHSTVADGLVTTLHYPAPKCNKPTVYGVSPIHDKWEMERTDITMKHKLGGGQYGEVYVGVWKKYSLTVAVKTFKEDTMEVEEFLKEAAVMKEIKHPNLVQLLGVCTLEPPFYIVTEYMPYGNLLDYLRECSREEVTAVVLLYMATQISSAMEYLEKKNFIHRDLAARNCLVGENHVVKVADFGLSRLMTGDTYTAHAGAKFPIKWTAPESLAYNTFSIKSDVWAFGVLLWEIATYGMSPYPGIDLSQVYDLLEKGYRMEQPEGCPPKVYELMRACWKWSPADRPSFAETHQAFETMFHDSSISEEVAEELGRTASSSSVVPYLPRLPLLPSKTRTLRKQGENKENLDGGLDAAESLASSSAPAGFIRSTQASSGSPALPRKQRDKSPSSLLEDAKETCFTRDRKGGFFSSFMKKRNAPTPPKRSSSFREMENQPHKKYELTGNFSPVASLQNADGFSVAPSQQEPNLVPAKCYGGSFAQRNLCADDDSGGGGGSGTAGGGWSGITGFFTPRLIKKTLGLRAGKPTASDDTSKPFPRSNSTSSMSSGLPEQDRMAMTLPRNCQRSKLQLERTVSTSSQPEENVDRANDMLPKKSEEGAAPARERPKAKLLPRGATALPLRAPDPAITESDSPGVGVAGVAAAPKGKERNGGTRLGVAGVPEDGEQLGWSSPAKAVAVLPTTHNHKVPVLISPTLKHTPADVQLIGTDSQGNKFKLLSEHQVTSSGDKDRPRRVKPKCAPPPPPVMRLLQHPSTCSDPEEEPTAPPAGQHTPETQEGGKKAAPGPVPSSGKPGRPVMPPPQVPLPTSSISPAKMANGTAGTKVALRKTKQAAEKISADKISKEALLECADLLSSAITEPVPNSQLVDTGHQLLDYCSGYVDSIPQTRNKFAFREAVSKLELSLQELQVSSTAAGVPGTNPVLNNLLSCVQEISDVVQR

Row | Kd (His6-N-WASp) [nM] | Kd [1] [nM] | Kd [2] [nM] | Binder
1 | 1400 ± 200 | – | – | GST-Arg-SH3 (domain or fragment, mouse, UniProt Q4JIM5 107-167, looked up) SDPNLFVALYDFVASGDNTLSITKGEKLRVLGYNQNGEWSEVRSKNGQGWVPSNYITPVNS
2 | – | ≥ 3800 | – | B1
3 | ≥ 3700 | – | 1700 ± 100 | GST-Arg-SH3SH2 (domain or fragment, mouse, UniProt Q4JIM5 107-263, looked up) SDPNLFVALYDFVASGDNTLSITKGEKLRVLGYNQNGEWSEVRSKNGQGWVPSNYITPVNSLEKHSWYHGPVSRSAAEYLLSSLINGSFLVRESESSPGQLSISLRYEGRVYHYRINTTTDSKVYVTAESRFSTLAELVHHHSTVADGLVTTLHYPA
